Data reported in the supplement of paper PMC10126150.
± gives the standard deviation of the averaged measurements.

System: ATP
Assay: switch fluorescence ratio, 500 uM ATP over buffer (Cy3 cluster intensity, sum of 5 cycles each) (fold (ratio)); higher = stronger signal-on switching upon ATP binding; sequences stand for … in TCGTCGGCAGCGTCAGATGTGTATAAGAGACAGTTTTTTTTTTTTTTTTTTTTTTTTT…TC
Details: aptamer strand: ATP DNA aptamer (quencher-CACCTGGGGGAGTATTGCGGAGGAAGG + anchor), 100 nM annealed; ATP concentration: 500 uM
In short: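 Clusters with intensities outside 100-1000 RFU were excluded. The remaining Cy3-labelled switching-strand clusters on a modified Illumina MiSeq flow-cell had been annealed to 100 nM quencher-labelled ATP aptamer and imaged in selection buffer, then after 15 min with 500 uM ATP at 22 °C, for five cycles separated by NaOH stripping and re-annealing. The fluorescence ratio, averaged per switch-domain sequence, is each cluster's summed target-cycle Cy3 intensity over its summed buffer-cycle Cy3 intensity.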
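Note: ATP exposure 15 min at 22 °C before imaging.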

Row | Sequence | switch fluorescence ratio
1 | ACCCAGCATC | 1.49 ± 0.025
2 | ACCCAGTGAA | 1.24 ± 0.016
3 | ACCCATAGCG | 1.017 ± 0.0062
4 | ACCCCTGGGC | 1.16 ± 0.041
5 | ACCCGAAGGG | 0.948 ± 0.075
6 | ACCCGAGCAT | 1.79 ± 0.12
7 | ACCCGAGGGA | 1.05 ± 0.05
8 | ACCCGATCTT | 1 ± 0.053
9 | ACCCGCACTT | 1.82 ± 0.24
10 | ACCCGGCACA | 1.21 ± 0.051
11 | ACCCGGGATT | 1.13 ± 0.098
12 | ACCCGTAAGA | 1.22 ± 0.093
13 | ACCCGTACTT | 1.15 ± 0.033
14 | ACCCTTCTGC | 1.15 ± 0.017
15 | ACCGACGCGG | 2.55 ± 0.34
16 | ACCGCACCAA | 1.34 ± 0.051
17 | ACCGCATTGT | 1.96 ± 0.23
18 | ACCGCTCAGG | 1.022 ± 0.0093
19 | ACCGCTGGTC | 1.13 ± 0.056
20 | ACCGCTGGTT | 0.97 ± 0.014
21 | ACCGCTTTTT | 1.11 ± 0.024
22 | ACCGGATGG | 1.03 ± 0.027
23 | ACCGGGCGGC | 1.05 ± 0.033
24 | ACCGGGGGTA | 0.991 ± 0.024
25 | ACCGGGTGCA | 1.36 ± 0.48

Row | Sequence | switch fluorescence ratio
26 | ACCGGGTGGG | 1.12 ± 0.15
27 | ACCGGGTGTA | 1.3 ± 0.086
28 | ACCGTAGCGG | 1.12 ± 0.023
29 | ACCGTCAGTG | 1 ± 0.015
30 | ACCGTTGGTT | 1.02 ± 0.056
31 | ACCGTTTTTA | 1.08 ± 0.097
32 | ACCTAGCTTC | 1.12 ± 0.05
33 | ACCTCTTATA | 1.05 ± 0.014
34 | ACCTGATGTC | 1.06 ± 0.015
35 | ACCTGGAAAA | 0.999 ± 0.048
36 | ACCTGGATTG | 1.03 ± 0.017
37 | ACCTGGCAAA | 1.09 ± 0.043
38 | ACCTGGGGAT | 1.028 ± 0.0099
39 | ACCTGGGTAC | 1.03 ± 0.055
40 | ACCTGGTGTT | 1.23 ± 0.39
41 | ACCTGTGATC | 1.02 ± 0.026
42 | ACCTGTTTGT | 1.01 ± 0.017
43 | ACCTTAAGGG | 1.01 ± 0.015
44 | ACCTTAGGCC | 1.07 ± 0.015
45 | ACCTTCGGGT | 1.03 ± 0.028
46 | ACCTTGTATA | 0.971 ± 0.022
47 | ACCTTTAAGC | 1.106 ± 0.01
48 | ACCTTTTCTT | 1 ± 0.011
49 | ACCTTTTGTG | 0.9903 ± 0.0046
50 | ACCTTTTTTT | 1.17 ± 0.11

Row | Sequence | switch fluorescence ratio
51 | ACGAAATTGG | 1.04 ± 0.068
52 | ACGAACAGCG | 1.153 ± 0.004
53 | ACGAATGGTG | 1.02 ± 0.031
54 | ACGAATTGTT | 0.9848 ± 0.0026
55 | ACGACATTTT | 1.084 ± 0.0048
56 | ACGACGTGGG | 1 ± 0.024
57 | ACGAGAAGGG | 1.02 ± 0.043
58 | ACGAGAGATT | 1.42 ± 0.48
59 | ACGAGATTAT | 1.02 ± 0.014
60 | ACGAGGCCGG | 0.952 ± 0.077
61 | ACGAGGCTCA | 1.062 ± 0.0068
62 | ACGAGGGCCA | 1.004 ± 0.0086
63 | ACGATAGGCC | 1.03 ± 0.028
64 | ACGATCAGGA | 1.026 ± 0.0029
65 | ACGATGACAC | 1.289 ± 0.0018
66 | ACGATGGGAG | 1.02 ± 0.021
67 | ACGATTAGGG | 0.996 ± 0.08
68 | ACGATTGTGG | 0.983 ± 0.014
69 | ACGCAGGACA | 1.35 ± 0.031
70 | ACGCAGGGGG | 0.989 ± 0.034
71 | ACGCCACTGT | 1.71 ± 0.038
72 | ACGCCATAGT | 1.25 ± 0.059
73 | ACGCCCTCCC | 2.02 ± 1.2
74 | ACGCCTTAGG | 1.05 ± 0.038
75 | ACGCGATTTT | 1.35 ± 0.46

Row | Sequence | switch fluorescence ratio
76 | ACGCGGGGGG | 1.02 ± 0.029
77 | ACGCGGTCGG | 1.08 ± 0.044
78 | ACGCGTCAGC | 1.01 ± 0.021
79 | ACGCGTGCGT | 0.988 ± 0.016
80 | ACGCTAGCCT | 1.18 ± 0.032
81 | ACGCTGGCGA | 1.03 ± 0.021
82 | ACGCTTTAGT | 1.01 ± 0.036
83 | ACGCTTTTGG | 1.03 ± 0.023
84 | ACGGAAATTT | 1.021 ± 0.0052
85 | ACGGAATCCT | 1.19 ± 0.018
86 | ACGGAATGTT | 1.0819 ± 0.00046
87 | ACGGACAATC | 1.47 ± 0.099
88 | ACGGACAGTT | 1.13 ± 0.029
89 | ACGGACATGG | 1.08 ± 0.017
90 | ACGGACTGGT | 1.18 ± 0.014
91 | ACGGACTTTG | 0.941 ± 0.063
92 | ACGGAGAGGC | 1.14 ± 0.22
93 | ACGGAGGATT | 1.04 ± 0.04
94 | ACGGAGGTGG | 0.992 ± 0.033
95 | ACGGATATTA | 1.01 ± 0.0031
96 | ACGGATGGCT | 0.984 ± 0.023
97 | ACGGATTGTG | 0.971 ± 0.0099
98 | ACGGCCTAAA | 0.98 ± 0.043
99 | ACGGCGCTGG | 1.02 ± 0.017
100 | ACGGCGTCGC | 1.02 ± 0.026

Row | Sequence | switch fluorescence ratio
101 | ACGGCTAAGG | 1.06 ± 0.029
102 | ACGGCTGGAA | 0.969 ± 0.015
103 | ACGGCTGTCA | 0.999 ± 0.025
104 | ACGGCTGTTC | 1.01 ± 0.027
105 | ACGGGAAGGG | 1.05 ± 0.03
106 | ACGGGAGACC | 1.02 ± 0.018
107 | ACGGGATCAT | 1.07 ± 0.054
108 | ACGGGCAAGC | 1.72 ± 0.23
109 | ACGGGCGGGC | 1.29 ± 0.032
110 | ACGGGCTAAC | 1.09 ± 0.14
111 | ACGGGCTTTA | 1.03 ± 0.026
112 | ACGGGCTTTT | 1.01 ± 0.012
113 | ACGGGGAGGC | 1.07 ± 0.028
114 | ACGGGGAGTC | 1.039 ± 0.0052
115 | ACGGGGATTG | 1.02 ± 0.042
116 | ACGGGGCATC | 1.07 ± 0.013
117 | ACGGGGCCGG | 1.06 ± 0.032
118 | ACGGGGCTAA | 1.12 ± 0.15
119 | ACGGGGGCGT | 1.05 ± 0.068
120 | ACGGGGGTAA | 1.18 ± 0.3
121 | ACGGGGGTG | 1.04 ± 0.074
122 | ACGGGTGACC | 1.03 ± 0.032
123 | ACGGGTGTCC | 0.995 ± 0.066
124 | ACGGGTTGTG | 0.96 ± 0.037
125 | ACGGGTTGTT | 1.02 ± 0.021

Row | Sequence | switch fluorescence ratio
126 | ACGGGTTTTT | 0.999 ± 0.015
127 | ACGGTACTGT | 1.4 ± 0.045
128 | ACGGTATAGT | 1.1 ± 0.017
129 | ACGGTATTTT | 1.09 ± 0.052
130 | ACGGTCATAT | 1.08 ± 0.027
131 | ACGGTCTGGA | 1 ± 0.041
132 | ACGGTGATAT | 1.03 ± 0.028
133 | ACGGTGCTTG | 0.99 ± 0.015
134 | ACGGTGGACT | 1 ± 0.035
135 | ACGGTTAGGG | 1.05 ± 0.043
136 | ACGGTTTAAT | 1.04 ± 0.029
137 | ACGGTTTATG | 1.01 ± 0.058
138 | ACGTAACGCT | 1.3 ± 0.052
139 | ACGTAATGG | 1.57 ± 0.059
140 | ACGTAGCATG | 2.46 ± 0.45
141 | ACGTAGCTTT | 1.37 ± 0.36
142 | ACGTAGGGGT | 1.21 ± 0.27
143 | ACGTAGGGTT | 1.08 ± 0.012
144 | ACGTAGTAAC | 1.03 ± 0.022
145 | ACGTCAAGGT | 1.0871 ± 0.00061
146 | ACGTCAGGGT | 1.0361 ± 0.00046
147 | ACGTCTACTC | 1.37 ± 0.1
148 | ACGTGACACC | 1.35 ± 0.063
149 | ACGTGCTTTT | 0.999 ± 0.018
150 | ACGTGGAGGA | 1.054 ± 0.0031

Row | Sequence | switch fluorescence ratio
151 | ACGTGGGGGG | 1.04 ± 0.082
152 | ACGTGGTGTT | 1.003 ± 0.0035
153 | ACGTGTAGGC | 1.01 ± 0.04
154 | ACGTTAAAAT | 1.05 ± 0.021
155 | ACGTTACTAC | 1.52 ± 0.03
156 | ACGTTATTGG | 1.14 ± 0.02
157 | ACGTTGAAGT | 1.01 ± 0.019
158 | ACGTTGAATG | 1.01 ± 0.011
159 | ACGTTGGATT | 1.01 ± 0.014
160 | ACGTTGGGCA | 0.99 ± 0.014
161 | ACGTTGGTGC | 1.06 ± 0.029
162 | ACGTTTAACT | 1.25 ± 0.015
163 | ACGTTTTACA | 1.183 ± 0.0076
164 | ACGTTTTTGC | 1.02 ± 0.044
165 | ACTAAAAATT | 1.05 ± 0.04
166 | ACTAAACTTG | 1.014 ± 0.0022
167 | ACTAAATAAA | 1.14 ± 0.23
168 | ACTAAGAATT | 1.02 ± 0.013
169 | ACTAATAGTC | 1.02 ± 0.038
170 | ACTAATGTTT | 0.994 ± 0.036
171 | ACTAATTAGC | 1.01 ± 0.031
172 | ACTACACTTT | 1.27 ± 0.018
173 | ACTACATTGG | 1.033 ± 0.0065
174 | ACTACCCCAA | 1.94 ± 0.14
175 | ACTACCCTCG | 1.18 ± 0.065

Row | Sequence | switch fluorescence ratio
176 | ACTACGTACA | 1.68 ± 0.024
177 | ACTAGAGGCA | 1 ± 0.024
178 | ACTAGAGGTT | 1.06 ± 0.039
179 | ACTAGATTCT | 0.979 ± 0.013
180 | ACTAGCTACT | 1.138 ± 0.0094
181 | ACTAGCTGTA | 0.982 ± 0.034
182 | ACTAGGATTC | 0.986 ± 0.0028
183 | ACTAGGTGTG | 1.04 ± 0.013
184 | ACTATGATCA | 1.02 ± 0.014
185 | ACTATTAAT | 1.024 ± 0.0063
186 | ACTATTGCCA | 1.04 ± 0.017
187 | ACTATTGGGT | 0.988 ± 0.015
188 | ACTATTTGCG | 0.991 ± 0.042
189 | ACTATTTTTT | 1 ± 0.029
190 | ACTCAAAACG | 1.11 ± 0.09
191 | ACTCAAGGCT | 1.07 ± 0.049
192 | ACTCAGGGGG | 1.27 ± 0.32
193 | ACTCATTCGG | 1.01 ± 0.015
194 | ACTCGCGGGT | 1.04 ± 0.021
195 | ACTCGGGACG | 0.9715 ± 0.0067
196 | ACTCGGGCAG | 0.9937 ± 0.002
197 | ACTCGGGGGG | 0.991 ± 0.023
198 | ACTCGGGTAC | 1.79 ± 0.15
199 | ACTCGTAATC | 3.04 ± 0.48
200 | ACTCGTAGCA | 1.19 ± 0.012
